{"source": "patent US20260167714A1", "about": "(COHERUS BIOSCIENCES, published 2026)", "key": {"[1]": {"target": "T1, recombinant human ILT4 (LILRB2) (human, UniProt Q8N423 22-460)", "T1 construct": "Bought protein (Acro Biosystems or R&D Systems); also called ILTR4", "T1 sequence (Q8N423 other isoform, or with tags, fused parts or gaps limits assumed)": "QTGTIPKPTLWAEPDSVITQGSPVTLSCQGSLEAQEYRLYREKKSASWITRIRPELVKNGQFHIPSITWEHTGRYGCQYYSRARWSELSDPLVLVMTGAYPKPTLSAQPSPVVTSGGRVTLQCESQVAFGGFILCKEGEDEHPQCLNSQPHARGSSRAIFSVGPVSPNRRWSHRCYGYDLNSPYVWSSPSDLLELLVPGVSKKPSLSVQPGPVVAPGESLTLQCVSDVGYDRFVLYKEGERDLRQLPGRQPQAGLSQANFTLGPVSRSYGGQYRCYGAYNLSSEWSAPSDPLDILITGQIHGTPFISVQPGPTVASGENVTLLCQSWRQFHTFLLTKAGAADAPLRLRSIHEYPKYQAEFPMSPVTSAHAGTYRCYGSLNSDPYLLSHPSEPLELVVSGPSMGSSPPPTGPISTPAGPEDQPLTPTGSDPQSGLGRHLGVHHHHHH", "assay": "KinExA, solution equilibrium, n-curve analysis", "experimental": "Kinetic Exclusion Assay (KinExA®) was performed to measure the equilibrium binding affinity and kinetics between human ILT4 and four humanized LALA-Fc modified antibodies in solution. For affinity analysis, the equilibrium dissociation constant, KD, was experimentally determined and reflects the strength of the binding interaction. The rate of association, kₒₙ, was also experimentally determined, while the rate of dissociation, koff, is calculated based on the following equation: koff=KD×kₒₙ\nThe binding affinity (KD), association (kₒₙ), and dissociation rate constants (koff) were measured for 4 different Humanized LALA IgG antibodies to ILT4 using KinExA. An n-curve analysis of at least two different curves, run at two different CBP concentrations, was used to determine the KD of the interactions The ILT4 was used as the concentration reference for all curves. All of the binding systems have low error and well defined 95% confidence intervals giving confidence to the measurements: […]"}, "[2]": {"target": "T1, recombinant human ILT4 (LILRB2)", "assay": "SPR, Biacore T200, medium resolution; koff held at its limit of 4.27e-5 s^-1", "experimental": "(§1) Label-free SPR analysis on a Biacore T200 instrument was utilized to measure antibody affinity to ILT4. CM4 sensor chips from Cytiva Inc. were utilized for all medium resolution analyses. Either anti-mouse Fc specific or anti-human Fc specific capture surfaces were prepared using standard amine coupling chemistry. Mouse, Chimera or Humanized mAbs were captured to their respective surfaces and ILT4 was injected across the surfaces from 101 nM to 0.79 nM in a 2-fold serial dilution series at a flow rate of 100 μL/min. The association phase was followed for 90 sec. while the dissociation phase was followed for 1200 sec. due to the medium resolution analysis implemented here. The sensorgrams were double-referenced and fit globally to a 1:1 interaction model with a term included for mass transport, and the equilibrium dissociation constant was calculated as KD=koff/kₒₙ. […] All kinetic experiments were performed at 25° C. in a buffer consisting of Hepes-buffered saline, pH 7.4, with 0.05% polysorbate 20 (HBS-P+) and 100 μg/ml Bovine Serum Albumin (BSA)."}, "[3]": {"target": "T1, recombinant human ILT4 (LILRB2)", "assay": "SPR, high resolution kinetics, triplicate, LALA antibody"}, "[4]": {"target": "T1, recombinant human ILT4 (LILRB2)", "assay": "SPR, Biacore T200, mAb captured on anti-Fc, ILT4 injected, medium resolution, 25 C", "experimental": "as §1"}, "[5]": {"target": "T2, LILRA3 (human, UniProt Q8N6C8 24-439)", "T2 construct": "Bought protein; limits of the part used are marked by bold type not visible here; whole entry named; also called recombinant human LILRA3", "T2 sequence (Q8N6C8 24-439 A105V limits assumed)": "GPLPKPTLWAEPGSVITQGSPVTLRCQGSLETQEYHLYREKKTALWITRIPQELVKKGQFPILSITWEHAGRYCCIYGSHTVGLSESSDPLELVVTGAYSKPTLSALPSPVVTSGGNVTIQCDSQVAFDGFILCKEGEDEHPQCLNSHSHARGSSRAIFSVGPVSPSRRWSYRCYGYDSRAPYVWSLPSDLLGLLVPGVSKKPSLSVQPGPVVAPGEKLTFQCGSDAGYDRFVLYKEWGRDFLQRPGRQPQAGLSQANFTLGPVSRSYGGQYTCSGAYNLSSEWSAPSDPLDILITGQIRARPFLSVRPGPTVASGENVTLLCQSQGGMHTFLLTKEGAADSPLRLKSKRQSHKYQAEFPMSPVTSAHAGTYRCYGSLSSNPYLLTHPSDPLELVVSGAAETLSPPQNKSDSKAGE", "assay": "SPR, Biacore 8K, mAb captured on anti-human Fc, analyte injected", "experimental": "(§2) SPR was used to determine the specificity of four humanized anti-ILT4 mAbs for binding to LILRB2 and to determine any cross-reactivity with nine other LILRA and LILRB family members. LILR proteins were purchased from Acro Biosystems or R&D Systems, with sequence provided below. The studies were performed with a Biacore 8K instrument using a CM4 sensor chip with a running buffer of HBS-P+, 100 μg/mL BSA. Anti-human Fc specific capture surfaces were prepared using standard amine coupling chemistry. MAb was captured to flow cell 2 with flow cell 1 serving as the reference flow cell. Each of the nine family members and LILRB2 were injected at 100 nM at 30 μL/min for 90 sec with 240 sec of dissociation. […] All sensorgrams were doubled-referenced during processing of the data."}, "[6]": {"target": "T3, LILRA5 (human, UniProt A6NI73 42-268)", "T3 construct": "Bought protein; limits of the extracellular domain are marked by bold type not visible here; whole entry named; also called recombinant human LILRA5", "T3 sequence (A6NI73 other isoform, or with tags, fused parts or gaps)": "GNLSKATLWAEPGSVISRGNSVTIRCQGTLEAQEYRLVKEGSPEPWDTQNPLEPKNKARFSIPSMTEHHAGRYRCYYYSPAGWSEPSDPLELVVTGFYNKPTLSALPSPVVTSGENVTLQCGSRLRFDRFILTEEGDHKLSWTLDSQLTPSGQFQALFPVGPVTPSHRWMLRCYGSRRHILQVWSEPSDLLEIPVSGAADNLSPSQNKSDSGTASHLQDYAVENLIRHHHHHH", "assay": "SPR, Biacore 8K, mAb captured on anti-human Fc, analyte injected", "experimental": "as §2"}, "[7]": {"target": "T4, LILRB3 (human, UniProt O75022 24-443)", "T4 construct": "Bought protein; limits of the extracellular domain are marked by bold type not visible here; whole entry named; also called recombinant human LILRB3; ILT5", "T4 sequence (O75022 other isoform, or with tags, fused parts or gaps)": "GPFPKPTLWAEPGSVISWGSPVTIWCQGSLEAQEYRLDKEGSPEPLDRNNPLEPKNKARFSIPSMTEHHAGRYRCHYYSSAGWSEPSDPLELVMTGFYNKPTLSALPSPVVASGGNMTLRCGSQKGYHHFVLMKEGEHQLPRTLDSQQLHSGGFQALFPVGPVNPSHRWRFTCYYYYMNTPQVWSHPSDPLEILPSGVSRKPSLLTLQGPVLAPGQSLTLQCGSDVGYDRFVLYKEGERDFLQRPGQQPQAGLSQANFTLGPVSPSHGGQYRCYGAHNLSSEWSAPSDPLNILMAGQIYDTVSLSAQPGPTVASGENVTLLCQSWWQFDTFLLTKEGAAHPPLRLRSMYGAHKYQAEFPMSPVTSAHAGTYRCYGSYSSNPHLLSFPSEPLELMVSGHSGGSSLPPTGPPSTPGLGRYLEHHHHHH", "assay": "SPR, Biacore 8K, mAb captured on anti-human Fc, analyte injected", "experimental": "as §2"}, "[8]": {"target": "T5, LILRA6 (human, UniProt Q6PI73 24-447)", "T5 construct": "Bought protein; limits of the extracellular domain are marked by bold type not visible here; whole entry named; also called recombinant human LILRA6", "T5 sequence (Q6PI73 other isoform, or with tags, fused parts or gaps)": "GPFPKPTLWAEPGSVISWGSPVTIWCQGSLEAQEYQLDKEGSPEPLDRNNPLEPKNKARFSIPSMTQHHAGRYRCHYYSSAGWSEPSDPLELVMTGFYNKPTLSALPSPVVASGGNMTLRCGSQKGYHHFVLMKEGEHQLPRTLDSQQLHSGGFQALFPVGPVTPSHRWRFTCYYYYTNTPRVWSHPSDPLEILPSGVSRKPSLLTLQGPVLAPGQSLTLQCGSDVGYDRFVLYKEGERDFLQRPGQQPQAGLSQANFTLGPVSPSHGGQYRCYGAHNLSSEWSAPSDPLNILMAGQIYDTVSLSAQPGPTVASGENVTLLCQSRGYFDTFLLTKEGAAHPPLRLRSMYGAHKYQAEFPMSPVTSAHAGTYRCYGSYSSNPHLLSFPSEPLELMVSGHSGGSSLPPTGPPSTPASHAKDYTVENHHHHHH", "assay": "SPR, Biacore 8K, mAb captured on anti-human Fc, analyte injected", "experimental": "as §2"}, "[9]": {"target": "T6, LILRA4 (human, UniProt P59901 24-446)", "T6 construct": "Bought protein; limits of the extracellular domain are marked by bold type not visible here; whole entry named; also called recombinant human LILRA4", "T6 sequence (P59901 other isoform, or with tags, fused parts or gaps)": "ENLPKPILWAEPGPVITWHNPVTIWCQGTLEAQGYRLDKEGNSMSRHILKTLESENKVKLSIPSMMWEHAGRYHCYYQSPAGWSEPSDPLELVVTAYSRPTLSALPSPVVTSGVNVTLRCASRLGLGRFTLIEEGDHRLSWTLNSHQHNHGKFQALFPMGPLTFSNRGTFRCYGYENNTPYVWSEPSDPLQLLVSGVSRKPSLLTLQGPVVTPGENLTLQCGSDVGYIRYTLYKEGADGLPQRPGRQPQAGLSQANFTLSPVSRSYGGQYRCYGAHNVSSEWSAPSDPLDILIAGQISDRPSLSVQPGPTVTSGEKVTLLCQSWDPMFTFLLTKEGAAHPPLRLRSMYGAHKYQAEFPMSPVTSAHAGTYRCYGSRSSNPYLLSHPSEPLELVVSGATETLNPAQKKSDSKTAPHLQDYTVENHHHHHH", "assay": "SPR, Biacore 8K, mAb captured on anti-human Fc, analyte injected", "experimental": "as §2"}, "[10]": {"target": "T7, LILRB4 (human, UniProt Q8NHJ6 22-259)", "T7 construct": "Bought protein; limits of the extracellular domain are marked by bold type not visible here; whole entry named; also called recombinant human LILRB4; ILT3", "T7 sequence (Q8NHJ6 other isoform, or with tags, fused parts or gaps)": "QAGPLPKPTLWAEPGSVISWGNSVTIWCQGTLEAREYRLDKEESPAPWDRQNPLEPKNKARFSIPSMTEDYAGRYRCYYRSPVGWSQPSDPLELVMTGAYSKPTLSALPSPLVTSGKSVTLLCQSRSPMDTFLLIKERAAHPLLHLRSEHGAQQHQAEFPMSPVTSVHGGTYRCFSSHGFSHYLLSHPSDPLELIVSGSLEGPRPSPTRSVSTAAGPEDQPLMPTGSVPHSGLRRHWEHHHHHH", "assay": "SPR, Biacore 8K, mAb captured on anti-human Fc, analyte injected", "experimental": "as §2"}, "[11]": {"target": "T8, LILRA2 (human, UniProt Q8N149 24-449)", "T8 construct": "Bought protein; limits of the extracellular domain are marked by bold type not visible here; whole entry named; also called recombinant human LILRA2", "T8 sequence (Q8N149 other isoform, or with tags, fused parts or gaps)": "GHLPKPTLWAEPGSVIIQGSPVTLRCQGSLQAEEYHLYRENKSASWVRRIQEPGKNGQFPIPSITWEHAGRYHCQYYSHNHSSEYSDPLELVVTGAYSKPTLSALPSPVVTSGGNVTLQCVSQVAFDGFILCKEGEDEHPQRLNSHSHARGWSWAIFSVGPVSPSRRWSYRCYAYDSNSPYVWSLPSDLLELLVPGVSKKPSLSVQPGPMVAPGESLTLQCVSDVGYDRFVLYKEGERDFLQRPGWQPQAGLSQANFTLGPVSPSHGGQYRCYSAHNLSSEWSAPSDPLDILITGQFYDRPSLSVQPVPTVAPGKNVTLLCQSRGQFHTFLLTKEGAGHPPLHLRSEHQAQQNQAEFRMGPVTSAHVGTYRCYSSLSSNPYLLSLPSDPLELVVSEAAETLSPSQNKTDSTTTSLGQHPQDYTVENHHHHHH", "assay": "SPR, Biacore 8K, mAb captured on anti-human Fc, analyte injected", "experimental": "as §2"}, "[12]": {"target": "T9, LILRB1 (human, UniProt Q8NHL6 24-461)", "T9 construct": "Bought protein; limits of the extracellular domain are marked by bold type not visible here; whole entry named; also called recombinant human LILRB1; ILT2", "T9 sequence (Q8NHL6 other isoform, or with tags, fused parts or gaps)": "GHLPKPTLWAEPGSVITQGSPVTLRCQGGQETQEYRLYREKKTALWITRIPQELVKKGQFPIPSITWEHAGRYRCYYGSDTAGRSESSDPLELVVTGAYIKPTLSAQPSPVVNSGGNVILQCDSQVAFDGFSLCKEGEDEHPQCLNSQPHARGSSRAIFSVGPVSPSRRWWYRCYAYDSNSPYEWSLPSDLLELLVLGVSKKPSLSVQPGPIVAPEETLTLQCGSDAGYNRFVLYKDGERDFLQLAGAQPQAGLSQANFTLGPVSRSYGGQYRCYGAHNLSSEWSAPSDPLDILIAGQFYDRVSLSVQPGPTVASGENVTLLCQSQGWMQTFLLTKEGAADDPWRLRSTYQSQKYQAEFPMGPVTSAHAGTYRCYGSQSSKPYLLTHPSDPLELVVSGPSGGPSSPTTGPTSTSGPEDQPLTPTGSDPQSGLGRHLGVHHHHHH", "assay": "SPR, Biacore 8K, mAb captured on anti-human Fc, analyte injected", "experimental": "as §2"}, "[13]": {"target": "T10, LILRA1 (human, UniProt O75019 17-461)", "T10 construct": "Bought protein; limits of the extracellular domain are marked by bold type not visible here; whole entry named; also called recombinant human LILRA1", "T10 sequence (O75019 other isoform, or with tags, fused parts or gaps)": "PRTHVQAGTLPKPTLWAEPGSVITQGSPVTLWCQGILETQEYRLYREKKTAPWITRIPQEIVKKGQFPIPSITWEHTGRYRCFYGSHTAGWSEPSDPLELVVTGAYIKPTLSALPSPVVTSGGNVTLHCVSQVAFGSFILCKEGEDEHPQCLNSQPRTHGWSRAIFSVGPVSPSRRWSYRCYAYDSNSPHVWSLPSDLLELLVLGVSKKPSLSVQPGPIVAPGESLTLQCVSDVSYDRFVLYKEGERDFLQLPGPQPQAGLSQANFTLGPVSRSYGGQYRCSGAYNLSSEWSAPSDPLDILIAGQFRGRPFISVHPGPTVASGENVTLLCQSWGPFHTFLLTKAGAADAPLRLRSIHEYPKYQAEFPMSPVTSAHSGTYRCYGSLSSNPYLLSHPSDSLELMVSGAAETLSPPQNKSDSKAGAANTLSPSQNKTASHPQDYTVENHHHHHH", "assay": "SPR, Biacore 8K, mAb captured on anti-human Fc, analyte injected", "experimental": "as §2"}, "[14]": {"target": "T11, human ILT4 expressed on cells (human, UniProt Q8N423 22-597)", "T11 construct": "whole, on cells; The same entry is used for endogenous ILT4 of human macrophages; also called CHO-S/ILT4 cells; ILT4-CHO cells", "T11 sequence (Q8N423 22-597)": "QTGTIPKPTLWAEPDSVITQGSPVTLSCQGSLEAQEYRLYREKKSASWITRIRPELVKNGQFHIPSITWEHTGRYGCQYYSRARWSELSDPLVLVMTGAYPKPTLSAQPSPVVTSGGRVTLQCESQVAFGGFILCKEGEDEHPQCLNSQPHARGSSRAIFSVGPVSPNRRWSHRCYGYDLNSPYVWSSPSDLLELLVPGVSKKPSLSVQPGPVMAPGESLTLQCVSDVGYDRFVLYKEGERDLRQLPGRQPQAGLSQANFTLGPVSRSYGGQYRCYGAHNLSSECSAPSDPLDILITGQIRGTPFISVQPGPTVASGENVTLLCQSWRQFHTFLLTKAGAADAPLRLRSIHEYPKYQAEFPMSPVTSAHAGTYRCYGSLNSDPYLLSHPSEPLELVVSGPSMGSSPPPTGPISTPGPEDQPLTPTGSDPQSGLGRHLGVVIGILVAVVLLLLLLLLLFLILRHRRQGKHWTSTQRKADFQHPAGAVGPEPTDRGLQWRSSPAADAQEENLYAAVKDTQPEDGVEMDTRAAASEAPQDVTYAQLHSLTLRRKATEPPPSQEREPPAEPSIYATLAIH", "assay": "flow based HLA-G blocking assay"}, "[15]": {"target": "T1, recombinant human ILT4 (LILRB2)", "assay": "SPR, high resolution kinetics, triplicate, LALA antibody; 95% CI in parentheses"}, "[16]": {"target": "T1, recombinant human ILT4 (LILRB2)", "assay": "SPR, Biacore 8K, mAb captured on anti-human Fc, LILRB2 at 100 nM; legend: ++++ tight binding (<100 pM KD)", "experimental": "as §2"}, "[17]": {"target": "T11, human ILT4 expressed on cells", "assay": "flow cytometry, blockade of PE-HLA-G tetramer (5 µg/ml) binding to CHO-S/ILT4 cells, experiment 2", "experimental": "(§3) In the second blocking experiment, the primary antibody dilutions were made by diluting antibody to 15 μg/ml in FACS buffer. Three independent sets of eleven 2.5-fold serial dilutions were then made in FACS buffer from 15 μg/ml to 0.002 μg/ml. Each dilution set was handled independently, and 50 μl from each was added to cells in duplicate. Control wells received FACS buffer with no antibody. Wells were mixed and incubated for 30 minutes at 4 degrees C. Cells were washed twice in FACS buffer.\n(§4) In both blocking experiments, phycoerythrin (PE)-conjugated HLA-G tetramer was diluted in FACS buffer to 5 μg/ml and 100 μl per well was added to cells. Cells were incubated at 4 degrees C. for 30 minutes, washed twice in FACS buffer, and resuspended in 250 μl FACS buffer with 0.1 μg/ml propidium iodide.\n(§5) Cells were acquired on an Attune flow cytometer, with 5000 propidium iodide-negative cells collected per sample, and MFI was recorded. Relative blocking activity was calculated with the following formula: 100−(Sample MFI−Background MFI)/(Top MFI−Background MFI)*100. Prism software (Graphpad) was used to plot MFI and relative blocking activity for each sample. The blocking potency for each antibody, represented as IC₅₀, was calculated with Prism software."}, "[18]": {"target": "T11, human ILT4 expressed on cells", "assay": "flow cytometry, blockade of PE-HLA-G tetramer binding to CHO-S/ILT4 cells, experiment 2", "experimental": "as §3, §4, §5"}, "[19]": {"target": "T11, human ILT4 expressed on cells", "assay": "flow cytometry blocking assay: ILT4-expressing CHO cells preincubated with antibody, then PE-HLA-G; HLA-G binding MFI falls from about 105000 (no antibody) to near 0", "experimental": "as §3, §4, §5"}, "[20]": {"target": "T11, human ILT4 expressed on cells", "assay": "cell-based or functional assay"}}, "data": [{"binder": "Hz77-LALA (antibody, human IgG1, kappa, L234A L235A, V domains shown, Humanized L77S2, human IgG1 L234A/L235A, kappa; also called Humanized 77_01; Hz 77 01) VH: QVQLVQSGAEVKKPGSSVKVSCKASGYSFTGYSVNWVRQAPGQGLEWIGRINPYNGDIFNNQKFKGRATITVDKSTSTAYMELSSLRSEDTAVYYCARGTTVGGAWFAYWGQGTLVTVSS VL: DIVMTQSPDSLAVSLGERATINCRASESVDSYGYSFLHWYQQKPGQPPKLLIYLASNLESGIPDRFSGSGSGTDFTLTISSLQAEDVAVYYCQQSNEDLMYTFGGGTKVEIKR", "values": [{"measurement": "Kd", "setting": "[1]", "result": 0.00546, "unit": "nM"}, {"measurement": "Kd", "setting": "[2]", "result": "≤ 0.052", "unit": "nM"}, {"measurement": "koff", "setting": "[2]", "result": "≤ 4.27e-05", "unit": "s⁻¹"}, {"measurement": "Kd", "setting": "[3]", "result": 0.0089, "unit": "nM"}, {"measurement": "koff", "setting": "[3]", "result": "4.24e-05", "unit": "s⁻¹"}, {"measurement": "kon", "setting": "[4]", "result": 835000, "unit": "M⁻¹ s⁻¹"}, {"measurement": "binding result", "setting": "[5]", "result": "no binding (tested: 100 nM)"}, {"measurement": "binding result", "setting": "[6]", "result": "no binding (tested: 100 nM)"}, {"measurement": "binding result", "setting": "[7]", "result": "no binding (tested: 100 nM)"}, {"measurement": "binding result", "setting": "[8]", "result": "no binding (tested: 100 nM)"}, {"measurement": "binding result", "setting": "[9]", "result": "no binding (tested: 100 nM)"}, {"measurement": "binding result", "setting": "[10]", "result": "no binding (tested: 100 nM)"}, {"measurement": "binding result", "setting": "[11]", "result": "no binding (tested: 100 nM)"}, {"measurement": "binding result", "setting": "[12]", "result": "no binding (tested: 100 nM)"}, {"measurement": "binding result", "setting": "[13]", "result": "no binding (tested: 100 nM)"}, {"measurement": "IC50", "setting": "[14]", "result": 0.176, "unit": "µg/mL"}, {"measurement": "kon", "setting": "[15]", "result": "4.78e+06", "unit": "M⁻¹ s⁻¹"}, {"measurement": "KD", "setting": "[16]", "result": "< 0.1", "unit": "nM"}]}, {"binder": "L45S4 (antibody, IgG2a, V domains shown, also called Murine 45; mouse anti-human ILT4 antibody L45S4) VH: EVQLQQSGPELVKPGASVKISCKASGYTFTDYYMNWVKQSHGKSLEWIGDINPNNGGTSYNQKFKGKATLTVDKSSSTAYMELRSLTSEDSAVYYCARGGAELTGTYWYFDVWGTGTTVTVSS VL: DIQMTQSPASLSISVGETVTITCRASENIYSNLAWYQQKQGKSPQVLVYGATNLADGVPSRFSGSGSGTQYSLKIKSLQSEDFGSYYCQHFWDSPFTFGSGTKLEIK", "values": [{"measurement": "IC50", "setting": "[17]", "result": 0.044, "unit": "µg/mL"}, {"measurement": "fold decrease of PE-HLA-G MFI", "setting": "[18]", "result": "≤ 69", "unit": "fold"}, {"measurement": "IC50", "setting": "[19]", "result": 0.071, "unit": "µg/mL"}, {"measurement": "IL-6 secretion by LPS-stimulated M2 macrophages (MSD), fold over control", "setting": "[20]", "result": 2, "unit": "fold"}, {"measurement": "Kd", "setting": "[4]", "result": 0.21, "unit": "nM"}, {"measurement": "koff", "setting": "[4]", "result": "8.4e-05", "unit": "s⁻¹"}, {"measurement": "kon", "setting": "[4]", "result": 401000, "unit": "M⁻¹ s⁻¹"}]}, {"binder": "L41S5 (antibody, IgG2a, V domains shown, also called mouse anti-human ILT4 antibody L41S5) VH: QVQLQQSGAELVKPGASVKISCKASGYAFSSYWMNWVKQRPGKGLEWIGQIYPGHGDTNYNGKFKGKATLTADKSSSTAYMQLSSLTSEDSAVYFCAKEGSELGRLFAYWGQGTLVTVSA VL: QIVLTQSPALMSASPGEKVTMTCSASSSVSFMYWYQQKPRSSPKPWIYLTSNLASGVPARFSGSGSGTSYSLTISSMEAEDAATYYCQQWSSNPPTFGGGTKLEIK", "values": [{"measurement": "IC50", "setting": "[17]", "result": 0.134, "unit": "µg/mL"}, {"measurement": "fold decrease of PE-HLA-G MFI", "setting": "[18]", "result": "≤ 14", "unit": "fold"}]}]}
